Results: IntAct's records for PubMed 21224850

B1: Cell division protein SepF (Bacillus subtilis), O31728 (parent)
chain: MSMKNKLKNFFSMEDEEYEYEYIETERESHEEHEQKEKPAYNGNKPAGKQNVVSLQSVQKSSKVVLSEPRVYAEAQEIADHLKNRRAVVVNLQRIQHDQAKRIVDFLSGTVYAIGGDIQRIGSDIFLCTPDNVDVSGTISELISEDEHQRW
partner: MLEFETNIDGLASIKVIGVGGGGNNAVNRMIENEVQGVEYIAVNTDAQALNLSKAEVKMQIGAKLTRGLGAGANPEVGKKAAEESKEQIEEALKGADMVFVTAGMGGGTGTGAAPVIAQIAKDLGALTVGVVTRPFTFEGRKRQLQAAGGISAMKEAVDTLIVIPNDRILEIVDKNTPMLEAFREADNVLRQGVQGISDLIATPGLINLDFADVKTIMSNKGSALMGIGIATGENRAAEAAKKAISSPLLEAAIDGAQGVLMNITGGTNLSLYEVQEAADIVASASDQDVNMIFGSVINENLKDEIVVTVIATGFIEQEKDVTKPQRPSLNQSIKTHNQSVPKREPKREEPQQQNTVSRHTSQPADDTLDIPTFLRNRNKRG

Variants of: B1
Settings: with ftsz_bacsu ftsZ

Variant	effect of a mutation on the interaction
F126S	disrupting interaction

Variants of: B1
Settings: with ftsz_bacsu ftsZ
Remark: another data set of the same source

Variant	effect of a mutation on the interaction
A100V	disrupting interaction
